Source: patent publication US20200392236A1 (JUNO THERAPEUTICS, published 2020)
Numbering of substitutions follows the chain as printed. Numbers in names are those of the source.

T1: human BCMA (B-cell maturation antigen) on cells (human, UniProt Q02223 1-184)
T1 construct: whole, on cells; also called hBCMA; hBCMA/HEK293 cell line
T1 sequence (looked up): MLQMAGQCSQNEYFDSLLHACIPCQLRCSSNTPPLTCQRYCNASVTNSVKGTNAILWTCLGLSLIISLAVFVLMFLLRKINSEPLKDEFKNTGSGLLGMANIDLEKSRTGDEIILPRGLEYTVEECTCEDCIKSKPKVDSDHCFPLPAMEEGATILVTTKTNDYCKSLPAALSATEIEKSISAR

B1: BCMA-10 anti-BCMA scFv (scFv)
scFv: EVQLVESGGGLVKPGGSLRLSCAASGFPFSDYYMSWIRQAPGKGLEWVSYISSSGSTIYYADSVKGRFTISRDNAKNSLYLQMNSLRAEDTAVYYCAKVDGPPSFDIWGQGTMVTVSSGGGGSGGGGSGGGGSSYVLTQPPSVSVAPGQTARITCGGNNIERKNVHWYQQKPGQAPVPVVYDDSDRASGIPERFSASNSGNTATLTISGAQATDEAEYYCQAWDSSSTLYVFGTGTKLTVL
notes: VH-(G4S)3-VL scFv
B2: BCMA-12 anti-BCMA scFv (scFv)
scFv: EVQLVESGGGLVKPGGSLRLSCAASGFTFSDYYMSWIRQAPGKGLEWVSYISSSGSTIYYADSVKGRFTISRDNAKNSLYLQMNSLRAEDTAVYYCAKVDGPPSFDIWGQGTMVTVSSGGGGSGGGGSGGGGSQSALTQPPSVSAAPGQKVTISCSGSRSNIGNNYVSWYQQLPGTAPKLLIYDNAKRPSGIPDRFSGSKSGTSATLDIAGLQTGDEADYYCQVWDSSSDHWVFGGGTKLTVL
notes: VH-(G4S)3-VL scFv
B3: BCMA-7 anti-BCMA scFv (scFv)
scFv: QVQLVQSGGGLVQPGRSLRLSCTASGFTFGDYAMSWFRQAPGKGLEWVGFIRSKAYGGTTEYAASVKGRFTISRDDSKSIAYLQMNSLKTEDTAVYYCAAWSAPTDYWGQGTLVTVSSGGGGSGGGGSGGGGSVIQLTQSPSSLSASVGDRVTITCRASQDIGDYLAWFQQRPGKAPKSLIYVASTLQSGVPSRFSGSGSGTHFTLTINSLQPEDFATYYCQQYHSHPWTFGPGTKVDIK
notes: VH-(G4S)3-VL scFv
B4: BCMA-4 anti-BCMA scFv (scFv)
scFv: QVQLVQSGGGLVQPGRSLRLSCTASGFTFGDYAMSWFRQAPGKGLEWVGFIRSKAYGGTTEYAASVKGRFTISRDDSKSIAYLQMNSLKTEDTAVYYCAAWSAPTDYWGQGTLVTVSSGGGGSGGGGSGGGGSAIRMTQSPSSLSASLGDRVTITCRASQDIRNSLAWYQQRPGKAPKLLLSAASRLESGVPSRFSGTTSGAEYALSISSLQPEDVASYFCQQYYSLPLSFGGGTKVEIK
notes: VH-(G4S)3-VL scFv
B5: BCMA-9 anti-BCMA scFv (scFv)
scFv: EVQLVQSGGGLVKPGGSLRLSCAASGFTFSDYYMSWIRQAPGKGLEWVSYISSSGSTIYYADSVKGRFTISRDNAKNSLYLQMNSLRAEDTAVYYCARVDGDYVDDYWGQGTLVTVSSGGGGSGGGGSGGGGSSYELTQPPSVSVAPGQTARVTCGANNIGSKSVHWYQQKPGQAPMLVVYDDDDRPSGIPERFSGSNSGNTATLTISGVEAGDEADYFCHVWDRSRDHYVFGTGTKLTVL
notes: VH-(G4S)3-VL scFv
B6: BCMA-2 anti-BCMA scFv (scFv)
scFv: EVQLVESGGGLVKPGGSLRLSCAASGFTFSDYYMSWIRQAPGKGLEWVSYISSSGSTIYYADSVKGRFTISRDNAKNSLYLQMNSLRAEDTAVYYCAKVDGPPSSDIWGQGTMVTVSSGGGGSGGGGSGGGGSEIVMTQSPATLSVSPGETATLSCRASQSIKTNLAWYQQKPGQAPRLLIYAASTRATGIPDRFSGSGSGTDFTLTITRLEPEDFAVYYCQQYGSSPTFGRGTKLEIK
notes: VH-(G4S)3-VL scFv
B7: BCMA-32 anti-BCMA scFv (scFv)
scFv: QVQLVESGGGLVKPGGSLRLSCAASGFTFSDYYMSWIRQAPGKGLEWVSYISSSGSTIYYADSVKGRFTISRDNAKNSLYLQMNSLRAEDTAVYYCAKVDGPPSFDIWGQGTMVTVSSGGGGSGGGGSGGGGSQTVVTQPPSVSVAPGQTARITCGGNNIGSKGVHWYRQRPGQAPEVVIYDDSDRPSGVPDRFSGSNSGNTATLTVRGVEAGDEADYYCQVWDSSSDHWVFGGGTKLTVL
notes: VH-(G4S)3-VL scFv
B8: BCMA-8 anti-BCMA scFv (scFv)
scFv: QVQLVQSGGGLVQPGRSLRLSCTASGFTFGDYAMSWFRQAPGKGLEWVGFIRSKAYGGTTEYAASVKGRFTISRDDSKSIAYLQMNSLKTEDTAVYYCAAWSAPTDYWGQGTLVTVSSGGGGSGGGGSGGGGSDIVMTQSPDSLAVSLGERATINCKSSQSVLYSSNNKNYLAWYQQKPGQPPKLLIYWASTRESGVPDRFSGSGSGTDFTLTISSLQAEDVAVYYCQQYYSTPYTFGQGTKLEIK
notes: VH-(G4S)3-VL scFv
B9: BCMA-3 anti-BCMA scFv (scFv)
scFv: B8 scFv with A145V, Y164H, S232T, Y235L, Q239G, L243V
notes: VH-(G4S)3-VL scFv
B10: BCMA-31 anti-BCMA scFv (scFv)
scFv: B8 scFv with Q1E, I135V, N155S, Y164N, L172V, Q176K, L186V, Y188S, E244D
notes: VH-(G4S)3-VL scFv
B11: BCMA-22 anti-BCMA scFv (scFv)
scFv: EVQLVESGGGLVKPGGSLRLSCAASGFTFSDYYMSWIRQAPGKGLEWVSYISSSGSTIYYADSVKGRFTISRDNAKNSLYLQMNSLRAEDTAVYYCAKVDGDYTEDYWGQGTLVTVSSGGGGSGGGGSGGGGSQSALTQPASVSGSPGQSITISCTGSSSDVGKYNLVSWYQQPPGKAPKLIIYDVNKRPSGVSNRFSGSKSGNTATLTISGLQGDDEADYYCCSYGGSRSYVFGTGTKVTVL
notes: VH-(G4S)3-VL scFv
B12: BCMA-20 anti-BCMA scFv (scFv)
scFv: EVQLLESGGGLVQPGRSLRLSCAASGFTFDDYAMHWVRQAPGKGLEWVSGISWNSGSIGYADSVKGRFTISRDNAKNSLYLQMNSLRAEDTALYYCAKGGLGITPYYFDYWGQGTLVTVSSGGGGSGGGGSGGGGSQPVLTQPPSASGTPGQRVTISCSGGKTVNWFRQVPGTAPQLLIYSNDQRPSGVPDRFSGSKSGSSASLDISGLQSEDEAYYYCGSWDDSLNAWVFGGETKLTVL
notes: VH-(G4S)3-VL scFv
B13: BCMA-21 anti-BCMA scFv (scFv)
scFv: EVQLVESGGGLVKPGGSLKLSCAASGFTFSDYYMSWIRQAPGKGLEWVSYISSSGSTIYYADSVKGRFTISRDNAKNSLYLQMNSLRAEDTAVYYCAKVDGGYTEDYWGQGTLVTVSSGGGGSGGGGSGGGGSQSVLTQPPSASGTPGQRVTISCSGSGSNIGSNDVSWYQQIPGTAPKLLIYWNDQRPSGVPDRFSGSKSGISASLAISGLRSEDEADYYCAAWDDSLNGYVFGTGTKVTVL
notes: VH-(G4S)3-VL scFv
B14: BCMA-18 anti-BCMA scFv (scFv)
scFv: EVQLLESGGGLVQPGGSLRLSCAASGFTFSSYWMSWHRQAPGKGPEWVAHINQDGSEKYYVDSVKGRFTISRDNAESSLYLQMNSLRAEDTAVYYCARWLAVTNWGQGTLVTVSSGGGGSGGGGSGGGGSQSVLTQPPSASGTPGQRVTISCSGSGSNIGSNDVSWYQQIPGTAPKLLIYWNDQRPSGVPDRFSGSKSGTSASLAISGLRSEDEADYYCAAWDDSLNGWVFGGGTKLTVL
notes: VH-(G4S)3-VL scFv

What follows are binders tested against T1, human BCMA (B-cell maturation antigen) … (assay: flow cytometry, hBCMA-overexpressing HEK293 compared with OPM2 and RPMI-8226 cells).
Method: Binding of exemplary scFv clones to hBMCA-overexpressing HEK293 cells as compared to OPM2 and RPMI-8226 cell lines that express moderate levels of endogenous BCMA was assessed.
B1: binds.
B2: binds.
B3: binds.
B4: binds.
B5: binds.
B6: binds.
B7: binds.
B8: binds.
B9: binds.
B10: binds.

Each binder was assayed against T1, human BCMA (B-cell maturation antigen) … (assay: flow cytometry, hBCMA-expressing HEK293 against parental HEK293 cells).
Method: Binding of exemplary scFv clones to hBMCA-expressing HEK293 cells was assessed and binding was compared to parental HEK293 cells.
In the case of B11, the “fold selective binding (hBCMA-expressing HEK293 over parental HEK293 cells)” value (shortened to “fold selective binding”) is reported as 7.5 fold.
With B12 the “fold selective binding” value was 10.8 fold.
For B13, the “fold selective binding” value was 3.4 fold.
B14 was tested, and the “fold selective binding” value was 2.2 fold.
